Assay results published in IntAct's records for PubMed 12629052.

Molecular target: fkb1a_human FKBP1A (UniProt P62942)
Sequence (P62942 whole entry): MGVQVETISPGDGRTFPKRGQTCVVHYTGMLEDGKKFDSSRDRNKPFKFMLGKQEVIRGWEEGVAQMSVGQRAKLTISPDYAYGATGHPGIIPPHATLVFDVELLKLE

Substance: Ryanodine receptor 1 (Oryctolagus cuniculus (Rabbit)), P11716 S2843D
- effect of a mutation on the interaction: disrupting interaction
